Experimental data published in paper PMC3283998 (The Journal of Cell Biology, 2012).
Where no end group is shown, it is not given here.

T1: Bub1(1–150) (human, UniProt O43683 1-150)
T1 sequence (looked up): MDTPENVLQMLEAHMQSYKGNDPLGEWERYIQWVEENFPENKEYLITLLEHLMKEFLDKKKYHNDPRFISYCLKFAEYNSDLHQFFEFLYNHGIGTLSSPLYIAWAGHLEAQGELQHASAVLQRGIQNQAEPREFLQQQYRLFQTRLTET


Tests used:
BubR1(1–204) = BubR1(1–204) (human, UniProt O60566 1-204); test: fluorescence polarisation
Bub1(1–150) = target: T1, Bub1(1–150); test: fluorescence polarisation

Sequence of BubR1(1–204) (O60566 1-204): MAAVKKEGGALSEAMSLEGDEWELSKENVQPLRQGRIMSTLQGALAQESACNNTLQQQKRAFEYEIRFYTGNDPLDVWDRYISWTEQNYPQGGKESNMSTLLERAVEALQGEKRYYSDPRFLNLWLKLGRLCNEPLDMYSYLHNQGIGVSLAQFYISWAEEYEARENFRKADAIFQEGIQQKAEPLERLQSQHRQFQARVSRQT

| Kd (BubR1(1–204)) [nM] | Kd (Bub1(1–150)) [µM] | Binder |
| --- | --- | --- |
| 450 |  | ENKIDFNDFIKRLKTGK (peptide, UniProt Q8NG31-2 210-226, looked up, also: 5-FAM label, position not given here) [5-FAM–labeled synthetic peptide Knl1(210–226)] |
|  | ~35 | STKIDTTSFLANLKLHT (peptide, UniProt Q8NG31-2 174-190, looked up, also: fluorescein (5-FAM) label, position not given here) [Fluorescein (5-FAM)-labeled Knl1(174–190) peptide] |
